Assay results: patent US11857648B2, “Dimerization strategies and compounds for molecular imaging and/or radioimmunotherapy” (UNIVERSITY OF PITTSBURGH—OF THE COMMONWEALTH SYSTEM OF …, priority 2016, dated 2024)

How the values were obtained:
[1] = system: bxpc3 and 4T1 tumor xenografts; assay: PET/CT imaging, subcutaneous xenograft mouse model; assay type: in vivo, NCr nude mice; conditions: 1 hour post injection
Procedure: In vivo PET/CT imaging was conducted in NCr nude mice bearing bxpc3 (human pancreatic adenocarcinoma cell line) and 4T1 (a murine breast cancer cell line that overexpresses integrin αvβ3 and CD13) tumor xenografts.
Mice were injected with bxpc3 cells (1 million cells in 150 μL PBS) into the subcutaneous flank of the right shoulder and 4T1 cells (1 million cells in 150 μL PBS) into the subcutaneous flank of the left shoulder.

[2] = PET/CT imaging, orthotopic xenograft mouse model; assay type: in vivo, Balb/c mice; conditions: Balb/c, mouse, iv, total radioactivity, 1 hour post injection
Procedure: (§1) In vivo PET/CT imaging was conducted in Balb/c mice. One week after the orthotropic implantation of 1×10^6 luciferase-transfected KPCP cancer cells into the pancreas of Balb/c mice, the mice were used for PET imaging. Either the CNGRC-(^68Ga)NOTA-RGDyK heterodimer (“CNGRC” disclosed as SEQ ID NO: 1), (^68Ga)NOTA(CNGRC) (“CNGRC” disclosed as SEQ ID NO: 1), or (^68Ga)NOTA(RGDyK)] were injected into the bloodstream via tail vein injection. Blocking studies were conducted for the heterodimer studies by co-injecting 100× of CNGRC (SEQ ID NO: 1) and RGDyK. Small animal PET/CT was performed at 1 hour post injection of tracers (FIGS. 15A-15C).

[3] = system: luciferase-transfected KPCP cancer cells; assay: PET/CT imaging, orthotopic xenograft mouse model; assay type: in vivo, Balb/c mice; conditions: 1 hour post injection
Procedure: as §1

[4] = PET/CT imaging, spontaneous transgenic mouse model; conditions: KCH (Pdx1-Cre;K-RasG12D/+; HMGB1−/−), mouse, in vivo, iv, total radioactivity, 1 hour post injection
Procedure: (§2) In vivo PET/CT imaging was conducted in the genetically engineered KCH (Pdx1-Cre;K-RasG12D/+; HMGB1−/−) mouse model. High mobility group box 1 (HMGB1) is a critical regulator of autophagy, a major pathway for degradation of effete proteins and damaged organelles, and the conditional genetic ablation of HMGB1 limited to the pancreas inhibits autophagy, promotes proliferation, activates normally quiescent pathways, and renders mice extraordinarily sensitive to K-RasG12D/+-driven pancreatic carcinogenesis. The progression of PanINs from low grade PanINI to high grade PanIN3 could be observed as early as seven days (normally three-nine months) after birth in KCH (Pdx1-Cre;K-RasG12D/+;HMGB1−/−). PET imaging normally was performed˜6 weeks old KCH mice.
(§3) Either the CNGRC-(^68Ga)NOTA-RGDyK (“CNGRC” disclosed as SEQ ID NO: 1) heterodimer, (^68Ga)NOTA(CNGRC) (“CNGRC” disclosed as SEQ ID NO: 1), or (^68Ga)NOTA(RGDyK)] were injected into the bloodstream via tail vein injection. Blocking studies were conducted for the heterodimer studies by co-injecting 100× of CNGRC (SEQ ID NO: 1) and RGDyK. Small animal PET/CT was performed at 1 hour post injection of tracers (FIGS. 16A-16D).

[5] = system: KCH (Pdx1-Cre;K-RasG12D/+; HMGB1−/−) mouse model; assay: PET/CT imaging, spontaneous transgenic mouse model
Procedure: as §2, §3

For `N=C(N)NCCC[C@@H]1NC(=O)CNC(=O)[C@H](CC(N)=O)NC(=O)[C@@H](NC(=O)CCOCCOCCOCCOCCNC(=O)C(CCn2nnc3c2CCC2C(CC3)C2COC(=O)NCCOCCOCCOCCOCCC(=O)NCCCC[C@@H]2NC(=O)[C@@H](Cc3ccc(O)cc3)NC(=O)[C@H](CC(=O)O)NC(=O)CNC(=O)[C@H](CCCNC(=N)N)NC2=O)N2CCN(CC(=O)O)CCN(CC(=O)O)CC2)CSSC[C@@H](C(N)=O)NC1=O` (some centres unmarked) [CNGRC-(^68Ga)NOTA-RGDyK, metal not drawn], which in vivo performance [1] is on record?
The in vivo performance was “longer blood retention, better tumor/non-tumor ratios”.

What about the tissue uptake at 1 h ([2]; blood, read-out: uptake in blood) of the same molecule?
Its tissue uptake at 1 h is 0.1 %ID/g.

And the tissue uptake at 1 h ([2]; kidney, read-out: uptake in kidney)?
Its tissue uptake at 1 h is 2.2 %ID/g.

And the tissue uptake at 1 h ([2]; liver, read-out: uptake in liver)?
The tissue uptake at 1 h was 1.8 %ID/g.

And the tissue uptake at 1 h ([2]; muscle, read-out: uptake in muscle)?
Its tissue uptake at 1 h is 0.1 %ID/g.

What about the tissue uptake at 1 h ([2]; pancreas, read-out: uptake in pancrease) of the same molecule?
The tissue uptake at 1 h was 0.36 %ID/g.

What about the tissue uptake at 1 h ([2]; spleen, read-out: uptake in spleen) of the same molecule?
The tissue uptake at 1 h was 1.1 %ID/g.

And the in vivo performance [3]?
The in vivo performance was “longer blood retention, better tumor/non-tumor ratios”.

And the “uptake in orthotopic tumor” value [3]?
Its value is 1.4 % ID/g.

And the tissue uptake at 1 h ([4]; uptake in blood)?
Its tissue uptake at 1 h is 0.23 %ID/g.

What about the tissue uptake at 1 h ([4]; uptake in kidney) of the same molecule?
The tissue uptake at 1 h was 5 %ID/g.

What about the tissue uptake at 1 h ([4]; uptake in liver) of the same molecule?
The tissue uptake at 1 h was 4.7 %ID/g.

What about the tissue uptake at 1 h ([4]; uptake in muscle) of the same molecule?
The tissue uptake at 1 h was 0.38 %ID/g.

And the tissue uptake at 1 h ([4]; uptake in spleen)?
Its tissue uptake at 1 h is 3.1 %ID/g.

And the in vivo performance ([5]; 1 hour post injection)?
The in vivo performance was “longer blood retention, better tumor/non-tumor ratios”.

What about the “uptake in malignant pancreas” value ([5]; 1 hour post injection) of the same molecule?
The value was 5.9 % ID/g.

What about the specific tumor uptake ([5]; PET imaging) of the same molecule?
Its specific tumor uptake is “showed specific tumor uptake”.
